Measured values reported in US20210061911A1.

Key:
[1] = biological target: Cynomolgus CD3ε/δ (cynomolgus monkey) (UniProt Q95LI5); test: kinetic binding analysis, method not given
Human CD3ε/δ (human) = Human CD3ε/δ (human) (UniProt P07766); test: kinetic binding analysis, method not given
Human CD3ε/δ (human), sequence (P07766 23-126, stated change not applied, chain 1 of 2): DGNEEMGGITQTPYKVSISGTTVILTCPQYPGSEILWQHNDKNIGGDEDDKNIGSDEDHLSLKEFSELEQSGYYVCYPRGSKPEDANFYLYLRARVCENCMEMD
Human CD3ε/δ (human), sequence (P04234 22-105, stated change not applied, chain 2 of 2, further chain): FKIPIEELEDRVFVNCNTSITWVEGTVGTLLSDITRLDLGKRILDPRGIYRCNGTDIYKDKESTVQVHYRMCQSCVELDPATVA

Cynomolgus CD3ε/δ (cynomolgus monkey), sequence (Q95LI5 22-117, stated change not applied, chain 1 of 2): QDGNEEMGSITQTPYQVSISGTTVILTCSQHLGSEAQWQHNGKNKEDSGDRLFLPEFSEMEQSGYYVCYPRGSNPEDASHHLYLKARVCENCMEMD
Cynomolgus CD3ε/δ (cynomolgus monkey), sequence (Q95LI8 22-105, stated change not applied, chain 2 of 2, further chain): as the sequence (P04234 22-105, stated change not applied, chain 2 of 2, further chain) above, with I5V, N15K, I20V, S32T, D33N, I34N, T64A, S74N, V83L counted along it

Kd [1]: 9.2 nM
koff [1]: 0.005 s⁻¹
kon [1]: 550000 M⁻¹ s⁻¹
Kd (Human CD3ε/δ (human)): 9 nM
koff (Human CD3ε/δ (human)): 0.005 s⁻¹
kon (Human CD3ε/δ (human)): 570000 M⁻¹ s⁻¹
B1: DART-A, sequence-optimized CD123×CD3 bi-specific monovalent diabody (bispecific antibody)
chain 1: QAVVTQEPSLTVSPGGTVTLTCRSSTGAVTTSNYANWVQQKPGQAPRGLIGGTNKRAPWTPARFSGSLLGGKAALTITGAQAEDEADYYCALWYSNLWVFGGGTKLTVLGGGGSGGGGEVQLVQSGAELKKPGASVKVSCKASGYTFTDYYMKWVRQAPGQGLEWIGDIIPSNGATFYNQKFKGRVTITVDKSTSTAYMELSSLRSEDTAVYYCARSHLLRASWFAYWGQGTLVTVSSGGCGGGEVAALEKEVAALEKEVAALEKEVAALEK
chain 2: DFVMTQSPDSLAVSLGERVTMSCKSSQSLLNSGNQKNYLTWYQQKPGQPPKLLIYWASTRESGVPDRFSGSGSGTDFTLTISSLQAEDVAVYYCQNDYSYPYTFGQGTKLEIKGGGSGGGGEVQLVESGGGLVQPGGSLRLSCAASGFTFSTYAMNWVRQAPGKGLEWVGRIRSKYNNYATYYADSVKDRFTISRDDSKNSLYLQMNSLKTEDTAVYYCVRHGNFGNSYVSWFAYWGQGTLVTVSSGGCGGGKVAALKEKVAALKEKVAALKEKVAALKE
